Reference: patent US20130142788A1 (published 2013)

Legend:
[1] = biological target: T1, recombinant mature dimeric myostatin (human and mouse (mature sequences 100% …, UniProt O08689 268-376)); assay: Kinexa solution phase affinity
T1 construct: also called GDF-8; mature myostatin
T1 sequence: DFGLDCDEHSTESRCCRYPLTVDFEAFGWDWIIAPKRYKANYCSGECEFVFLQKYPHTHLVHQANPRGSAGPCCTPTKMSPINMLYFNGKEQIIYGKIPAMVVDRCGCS
Method: Kinexa (Sapidyne Instruments) solution phase affinity was used to determine the overall affinity for a range of anti-myostatin molecules. Myostatin beads were prepared either by adsorption (polymethylmethacrylate beads-PMMA) or amine coupling (NHS-activated sepharose beads). The range of anti-myostatin molecules studied necessitated the generation of beads coated with different concentrations of myostatin. For the solution phase portion of the assay, a fixed concentration of antibody was incubated with a broad range of myostatin concentrations and allowed to reach equilibrium by incubation at r.t. for at least 2 h before analysis proceeded. The myostatin beads were then used to determine the amount of free antibody present in the solution phase samples, by means of the free antibody binding to the myostatin bead matrix then detected using an appropriate secondary antibody (either anti-human or anti-mouse depending on the construct being tested) labelled with a fluorescent dye. The binding curves where fitted using the Kinexa Pro analysis software inherent to the machine. Multiple runs using varying starting concentrations of antibody were then compiled and analysed using the n-curve analysis software to give a more accurate determination of affinity.

[2] = biological target: T2, human myostatin pro-peptide dimer (human, UniProt O14793 25-266, limits assumed); assay: ELISA, antigen coated at 100 ng/well
T2 sequence: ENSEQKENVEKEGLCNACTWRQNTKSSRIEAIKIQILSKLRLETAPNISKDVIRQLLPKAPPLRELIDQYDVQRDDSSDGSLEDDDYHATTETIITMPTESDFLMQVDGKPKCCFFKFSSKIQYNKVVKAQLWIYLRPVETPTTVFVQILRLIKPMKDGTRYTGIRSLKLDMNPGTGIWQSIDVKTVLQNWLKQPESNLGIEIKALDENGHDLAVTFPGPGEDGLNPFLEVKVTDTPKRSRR
Method: The myostatin antigens were coated onto wells of an EIA/RIA plate (Costar) at 100 ng/well at 4° C. overnight in PBS, prior to blocking (PBS, 3% BSA) for 30 minutes at room temperature. Plates were washed (PBS, 1% BSA and 0.1% Tween20), prior to the addition of a dilution series of 10B3 in wash buffer and incubation for 2 hours at room temperature. Plates were again washed prior to addition of peroxidase-conjugated Affinipure F(ab′)2 fragment donkey anti-mouse IgG (Jackson Laboratories cat 715-036-151) diluted 1:10,000 in wash buffer and incubated for 1 hour at room temperature. A final wash step preceded addition of TMB substrate and colorimetric change which was stopped with Sulphuric acid and plates read at 450 nm.

[3] = biological target: T1, recombinant mature dimeric myostatin; assay: ActRIIb receptor binding assay: inhibition of biotinylated myostatin binding to coated ActRIIb
Method: (§1) Recombinant soluble ActRIIb (R&D Systems 339-RBB) was coated in wells of an ELISA plate at 1 μg/ml in carbonate buffer overnight at 4° C. Plates were blocked (see Block solution above at 2.3) and washed following standard ELISA protocols. In parallel, 2 nM biotinylated myostatin (in-house, as described in 1.1, biotinylated material) was pre-incubated with an antibody dilution series consisting of 10B3, 10B3C, and a negative control (IgG1 isotype control) for 2 hours at 37° C. The biotinylated myostatin:antibody reactions were then added to the ActRIIb coated plate for 1 hour at 37° C. Standard wash procedures were followed prior to addition of 1:1000 diluted streptavidin-HRP conjugate (Dako P0397) and a further 37° C. incubation for 1 hour. Plates were again washed and assayed at absorbance 490 nm following OPD substrate (Sigma) and acid stop solution treatment. Inhibition curves and IC50 values for the inhibition of myostatin activity are shown in FIG. 5 and Table 8 respectively.

[4] = biological target: T1, recombinant mature dimeric myostatin; assay: ActRIIb neutralisation ELISA: inhibition of 2 nM biotinylated myostatin binding to coated ActRIIb
How it was run: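 Soluble ActRIIb coated at 1 μg/ml; 2 nM biotinylated myostatin pre-incubated 30 min at 37° C with antibody dilution series, then bound to plate 1 h at 37° C. Bound myostatin detected with streptavidin-HRP, absorbance at 490 nm after acid stop.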

[5] = biological target: T1, recombinant mature dimeric myostatin; assay: BIAcore T100 SPR, antibody captured on anti-mouse IgG, myostatin analyte, all curves Bivalent model
Method: The affinity of 10B3 mouse parental and 10B3C for recombinant myostatin was assessed by BIAcore™ (surface plasmon resonance) analysis. Analysis was carried out by the use of a capture surface: anti-mouse IgG was coupled to a C1 chip by primary amine coupling for 10B3 mouse parental; and a protein A surface was created on a C1 chip by primary amine coupling for 10B3 chimera.
After capture, recombinant myostatin was passed over the surface at 64 nM, 16 nM, 4 nM, 1 nM, 0.25 nM and 0.0625 nM, with a buffer injection (i.e. 0 nM) used for double referencing. There was a regeneration step between each analyte injection, after which the new antibody capture event occurred before the next injection of myostatin. The data was analysed using both the 1:1 model and the Bivalent model inherent to the T100 machines analysis software (see Table 6). Both capture surfaces could be regenerated using 100 mM phosphoric acid, the work was carried out using HBS-EP as the running buffer and using 25° C. as the analysis temperature.

[6] = biological target: T1, recombinant mature dimeric myostatin; assay: ActRIIb receptor neutralisation ELISA: antibody pre-incubated with 2 nM biotinylated myostatin, binding to coated ActRIIb
Method: as §1

Kd [1]: 205 pM | binding result [2]: no binding | IC50 [3]: 161 pM | IC50 [4]: 172 pM | Kd [5]: 5900 pM | IC50 [6]: 0.132 µg/mL
B1: mouse monoclonal antibody 10B3 (antibody, mouse IgG2a, V domains shown)
VH: EVQLQQSGPELVKPGASVKISCKASGYSFTGYFMHWVKQSHGNILDWIGNIYPYNGVSNYNQRFKAKATLTVDKSSSTAYMELRSLTSEDSAVYYCARRYYYGTGPADWYFDVWGTGTTVTVSS
VL: DIKMTQSPSSMYASLRERVTITCKASQDINSYLSWFQQKPGKSPKTLIYRANRLVDGVPSRFSGSGSGQDYSLTISSLEYEDMGIYYCLQCDEFPLTFGAGTKLELK
notes: Murine IgG2a/k; also called 10B3 mouse parental; parental 10B3
